Source: patent US20240132626A1

Biological target: Soluble human CD137 ECD protein (human) (UniProt Q07011)
Assay: SPR, captured via anti-human kappa, soluble ECD injected

Soluble human CD137 ECD protein (human), sequence (Q07011 24-186): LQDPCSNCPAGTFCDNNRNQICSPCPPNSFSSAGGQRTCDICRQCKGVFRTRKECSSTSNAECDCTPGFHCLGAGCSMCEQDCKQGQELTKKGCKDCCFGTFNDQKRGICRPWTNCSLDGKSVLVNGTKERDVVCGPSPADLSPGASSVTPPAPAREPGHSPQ
Urelumab (antibody), sequence (VH): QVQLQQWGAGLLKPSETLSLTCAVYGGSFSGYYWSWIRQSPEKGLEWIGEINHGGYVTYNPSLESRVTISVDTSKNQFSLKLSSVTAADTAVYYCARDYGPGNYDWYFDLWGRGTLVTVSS
Urelumab (antibody), sequence (VL): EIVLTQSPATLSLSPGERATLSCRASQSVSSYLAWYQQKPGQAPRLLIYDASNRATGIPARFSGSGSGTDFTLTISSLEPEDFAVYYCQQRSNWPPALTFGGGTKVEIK

- Kd: 11 nM
- koff: 0.0023 s⁻¹
- kon: 210000 M⁻¹ s⁻¹
Substance: Urelumab (antibody)
